Assay results taken from patent US20240024499A1.

Target: glypican-3 (GPC3) on GPC3-positive liver cancer cell lines HepG2-C3A and Hep3B (human) (UniProt P51654)
Experiment: flow cytometry on GPC3-positive HepG2-C3A and Hep3B cells, anti-hIgG-AF488 detection

Sequence of glypican-3 (GPC3) on GPC3-positive liver cancer cell lines HepG2-C3A and Hep3B (human) (P51654 25-580): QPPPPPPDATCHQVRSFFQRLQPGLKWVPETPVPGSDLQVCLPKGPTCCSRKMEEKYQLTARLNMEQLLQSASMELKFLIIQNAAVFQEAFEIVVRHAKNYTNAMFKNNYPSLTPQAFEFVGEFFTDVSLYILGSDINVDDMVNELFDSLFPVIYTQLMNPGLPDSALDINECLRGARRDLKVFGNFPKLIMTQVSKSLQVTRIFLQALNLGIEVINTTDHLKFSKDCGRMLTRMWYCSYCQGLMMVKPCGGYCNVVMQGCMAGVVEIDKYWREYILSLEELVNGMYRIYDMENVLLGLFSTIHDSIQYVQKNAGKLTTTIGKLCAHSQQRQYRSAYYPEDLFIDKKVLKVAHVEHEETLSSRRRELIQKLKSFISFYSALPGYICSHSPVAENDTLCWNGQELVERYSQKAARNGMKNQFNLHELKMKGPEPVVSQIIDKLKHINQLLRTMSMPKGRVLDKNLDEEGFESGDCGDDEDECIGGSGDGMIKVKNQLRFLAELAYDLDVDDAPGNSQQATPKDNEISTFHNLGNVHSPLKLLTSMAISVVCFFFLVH

B1: ARD103 antibody (antibody, human IgG1, kappa, V domains shown)
VH: QVQLVESGAEVKKPGASVKVSCKASGYTFTDYEMHWVRQAPGQGLEWMGALDPKTGDTAYSQKFKGRVTLTADKSTSTAYMELSSLTSEDTAVYYCTRFYSYTYWGQGTLVTVSS
VL: DVVMTQSPLSLPVTPGEPASISCRSSQSLVHSNGNTYLHWYLQKPGQSPQLLIYKVSNRFSGVPDRFSGSGSGTDFTLKISRVEAEDVGVYYCSQNTHVPPTFGQGTKLEIKR
B1 gave an EC50 of 3.5 to 4 nM.
